The target in test [1] is human ferroportin (wild type) (human) (UniProt Q9NP59). The experiment in a line: fluorescence polarisation. Background: In fluorescence polarisation assays a small probe gives low polarisation when free and higher when bound to something large.
For test [2] the target is unchanged. The experiment in a line: fluorescence polarisation. The source holds these as a separate data set.
For test [3] the target is unchanged. Nature of the test: fluorescence polarisation. This is another data set of the same source.
The target in a further test is T1, Rhodamine green-hepcidin (Homo sapiens, not fully specified; rhodamine green at position 17).
T1 chain: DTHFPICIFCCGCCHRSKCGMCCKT
The experiment in a line: fluorescence polarisation.

Test [4] deals with human ferroportin (wild type) (human, UniProt Q9NP59). The experiment in a line: SEC. For orientation: SEC sorts molecules by how far they enter the pores of the column.
Sequence of human ferroportin (wild type) (Q9NP59 whole entry): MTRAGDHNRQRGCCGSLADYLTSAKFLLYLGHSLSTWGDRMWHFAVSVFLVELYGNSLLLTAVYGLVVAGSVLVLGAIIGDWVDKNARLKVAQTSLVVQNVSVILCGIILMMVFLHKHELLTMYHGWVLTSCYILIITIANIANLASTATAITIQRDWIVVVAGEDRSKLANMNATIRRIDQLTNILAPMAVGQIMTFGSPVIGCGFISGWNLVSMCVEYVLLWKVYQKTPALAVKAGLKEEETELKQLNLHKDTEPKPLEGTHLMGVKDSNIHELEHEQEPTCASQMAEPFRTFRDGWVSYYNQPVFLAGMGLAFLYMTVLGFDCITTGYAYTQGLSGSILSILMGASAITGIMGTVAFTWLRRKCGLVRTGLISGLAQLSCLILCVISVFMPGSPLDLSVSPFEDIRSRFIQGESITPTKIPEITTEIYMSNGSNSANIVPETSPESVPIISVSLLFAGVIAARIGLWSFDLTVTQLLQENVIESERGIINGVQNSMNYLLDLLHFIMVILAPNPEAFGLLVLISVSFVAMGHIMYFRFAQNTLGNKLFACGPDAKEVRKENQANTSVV

Like-named read-outs stand apart in the source and are kept apart here.

Sequence of human ferroportin (wild type) (human) (Q9NP59 whole entry): as above

The Kd is the equilibrium constant for the complex coming apart. As for Rhodamine green-hepcidin (peptide), the dissociation constant Kd in test [1] was 210 nM; in test [2] it was 2.5 nM; in test [3], 7.7 nM.

B1: Fab45D8 (Fab, V domains shown)
VH: EVQLQESGPGLAKPSQTLSLTCSVTGSSITSDYWNWIRKFPGNKLEYMGYISYSGSTYYNPSLKSQISITRDTSKNHYYLQLNSVTTEDTATYYCARQGLRNWYFDVWGTGTTVTVSS
VL: DIVLTQSPASLPVSLGQRATISCRASKSVSASAYSYMHWYQQKPGQPPKPLIYLASNLESGVPARFSGSGSGTDFTLNIHPVEEEDAATYYCQHNRELPYTFGGGTKLEIK
As to B1, the results for the binding result (with Rhodamine green-hepcidin; in test [4]) were “no binding” and “binds”, respectively.

The values above are taken from publication PMC7906036 (Nature, 2020).
